The target in the data set is T1, Recombinant FANCE (149-536) wild-type, Q9HB96.
T1 chain: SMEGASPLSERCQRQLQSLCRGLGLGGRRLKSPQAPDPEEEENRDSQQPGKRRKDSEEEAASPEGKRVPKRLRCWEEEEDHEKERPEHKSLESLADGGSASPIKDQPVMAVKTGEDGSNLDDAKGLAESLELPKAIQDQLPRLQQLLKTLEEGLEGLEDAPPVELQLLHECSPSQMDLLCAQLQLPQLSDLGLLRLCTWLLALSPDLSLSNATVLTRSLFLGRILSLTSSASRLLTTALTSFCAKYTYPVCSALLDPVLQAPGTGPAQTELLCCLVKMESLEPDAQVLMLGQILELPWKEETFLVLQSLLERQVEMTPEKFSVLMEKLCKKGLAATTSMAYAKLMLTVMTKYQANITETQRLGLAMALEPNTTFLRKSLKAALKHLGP

B1: purified recombinant Chk1 (Upstate Technology) (protein)
chain: MAVPFVEDWDLVQTLGEGAYGEVQLAVNRVTEEAVAVKIVDMKRAVDCPENIKKEICINKMLNHENVVKFYGHRREGNIQYLFLEYCSGGELFDRIEPDIGMPEPDAQRFFHQLMAGVVYLHGIGITHRDIKPENLLLDERDNLKISDFGLATVFRYNNRERLLNKMCGTLPYVAPELLKRREFHAEPVDVWSCGIVLTAMLAGELPWDQPSDSCQEYSDWKEKKTYLNPWKKIDSAPLALLHKILVENPSARITIPDIKKDRWYNKPLKKGAKRPRVTSGGVSESPSGFSKHIQSNLDFSPVNSASSEENVKYSSSQPEPRTGLSLWDTSPSYIDKLVQGISFSQPTCPDHMLLNSQLLGTPGSSQNPWQRLVKRMTRFFTKLDADKSYQCLKETCEKLGYQWKKSCMNQVTISTTDRRNNKLIFKVNLLEMDDKILVDFRLSKGDGLEFKRHFLKIKGKLIDIVSSQKIWLPAT
For the protein B1, the “in vitro kinase assay, Western blot with anti-pT346-FANCE and anti-pS374-FANCE” value is “the recombinant FANCE (rFANCEwt) protein phosphorylated by Chk1 in vitro”.

These data come from US20200140868.
